Measured values published in patent US20160208226A1, “Transaminase Biocatalysts” (COMMONWEALTH SCIENTIFIC AND INDUSTRIAL RESEARCH ORGANISATION, priority 2013, published 2016).

Assays:
[1] = Solubility of the substrates in the alanine dehydrogenase-coupled kinetic assay; format: physicochemical; settings: assay buffer; kinetic parameters cannot be determined
Description: The alanine dehydrogenase-coupled assay has been used to determine some early kinetic parameters for p6 and p7. Reactions with C3 to C8 for p6 and C4 to […] have been fully characterised and show no clear trend in terms of reaction rate vs. carbon chain length. For C11 and C12, the solubility of the substrates is extremely low, and as such, kinetic parameters cannot be determined.
The alanine dehydrogenase-coupled assay has been used to determine some early kinetic parameters for all the aforementioned enzymes. Reactions with C3 to C8 for p6 and C4 to C8 for p7 have been fully characterised and show no clear trend in terms of reaction rate vs. carbon chain length. For C11 and C12, the solubility of the substrates is extremely low, and as such, kinetic parameters cannot be determined.

[2] = Coupled dehydrogenase assays for transaminase activity of the Pseudomonas sp. proteins and ancestral reconstructions; format: biochemical; settings: for activity of ancestral reconstruction proteins in the coupled assays: E. coli expressed, purified proteins
Experimental: Activity for each protein was assessed using coupled dehydrogenase assays as described previously. A typical assay comprised:
Substrate (6.25 mM final concentration in potassium phosphate buffer)
Co-substrate (pyruvate (0.5 mM final concentration) or α-KG (0.25 mM final concentration)
NAD (1.25 mM final concentration)
Dehydrogenase (1 μL from ADH-≧35 units/mL stock solution or GDH≧35 units/mg protein stock)
Transaminase (final concentration dependent)
Potassium phosphate buffer (100 mM)
UV absorbance at 340 nm was recorded at 28° C. over a pH range of 7.5-10 with a range of substrates.
Proteins encoded by p7N6, p7N15, p7N16, p7N17, p7N43 and p7N48 were expressed using an E. coli recombinant expression platform and subsequently purified.
Each of the proteins were assayed for substrate specificity. Substrates identified by assaying for each of the proteins are summarized below.

[3] = Large-scale (200 mL) p6 reaction analysed by GC-MS; format: biochemical; settings: C11 amino acid substrate, after seven days, oil analysed by GC-MS
Experimental: To corroborate the findings of the UV assay, a large-scale (200 mL) p6 reaction was carried out using C11 amino acid substrate. After seven days, the mixed reaction was allowed to settle and yellow oil was observed on the surface of the reaction. This oil was concentrated in vacuo and analysed by GC-MS. […] The diacid is thought to be the oxidation product of the semialdehyde formed by the transaminase, further supporting the findings of the UV assay.

[4] = Coupled assay of GabT with glutamate dehydrogenase (NADH formation at 340 nm); format: biochemical; settings: coupled GDH assay, NADH detected at 340 nm
Description: DNA encoding the GabT protein from E. coli strain BL21-DE3 was amplified from genomic DNA using specially designed primers. The PCR product was restricted using NdeI and BamHI restriction endonucleases (NEB) and ligated (T4 DNA ligase, NEB) into a modified pET expression vector that had also been restricted using the aforementioned enzymes, and contained ampicillin resistance for selectivity. The vector was transformed into electrocompetent E. coli strain BL21-DE3 and transformants plated onto LB agar plates containing ampicillin (100 μg/mL) for selectivity. Transformant DNA was isolated and sent for sequencing to confirm the identity of the vector construct. […] The protein was purified using a HiTrap Chelating HP 5 mL column (GE Healthcare) for nickel affinity chromatography on an FPLC (Fast Protein Liquid Chromatography. GE Healthcare), exploiting an N-terminal His6-tag on GabT. SDS-PAGE confirmed the protein size.
Protein activity was confirmed using a coupled assay that comprised GabT and a commercially available glutamate dehydrogenase (GDH; Sigma Aldrich). The assay works as illustrated below, with the dehydrogenase catalysing the oxidative deamination of glutamate—the co-product of the GabT transamination reaction.
Therefore, although a viable biocatalyst for these substrates had been identified, it could not produce the desired longer chain (>C9) products. […]

Molecule: NCCCCCCCCCCC(=O)O [C11, 11-aminoundecanoic acid]
- solubility of the substrates [1]: extremely low

Molecule: NCCCCCCCCCCCC(=O)O [C12, 12-aminododecanoic acid]
- solubility of the substrates [1]: extremely low

B1: p6: pyruvate: ω-amino acid transaminase from a newly isolated Pseudomonas sp., amino acid sequence SEQ ID NO:1 (protein, listed as Pseudomonas sp.)
chain: MGSSHHHHHHSSGLVPRGSHMNQQVNVAPSAAADLNLKAHWMPFSANRNFHKDPRIIVAAEGSWLVDDKGRRIYDSLSGLWTCGAGHSRKEIADAVAKQIGTLDYSPGFQYGHPLSFQLAEKIAQMTPGTLDHVFFTGSGSECADTSIKMARAYWRIKGQAQKTKLIGRARGYHGVNVAGTSLGGIGGNRKMFGPLMDVDHLPHTLQPGMAFTKGAAETGGVELANELLKLIELHDASNIAAVIVEPMSGSAGVIVPPKGYLQRLREICDANDILLIFDEVITAFGRMGKATGAEYFGVTPDIMNVAKQVTNGAVPMGAVIASSEIYDTFMNQNLPEYAVEFGHGYTYSAHPVACAAGIAALDLLQKENLIQQSAELAPHFEKALHGLKGTKNVIDIRNCGLAGAIQIAARDGDAIVRPFEASMKLWKEGFYVRFGGDTLQFGPTFNAKPEDLDRLFDAVGEALNGVA
- pH optimum ([2]; UV absorbance at 340 nm, 28° C., pH range 7.5-10): ~10
- smallest substrate accepted ([2]; coupled dehydrogenase assay): C3 (β-alanine)
- activity with ω-amino acids including long chain C11 and C12 ([2]; coupled dehydrogenase assay, 340 nm, 28° C., pH 7.5-10): shown the desired activity with ω-amino acids, notably including long chain amino acids C11 and C12
- product detected by GC-MS in large-scale reaction [3]: a peak corresponding to the mass of the C11 diacid was also found in large concentrations

B2: p7N43: de novo peptide sequence based on p7, produced by ancestral reconstruction; SEQ ID NO:11 (protein)
chain: MTSLEQLLEMDRAHFMHPSTHAYDHASGALPGRIITGGKGIRIEDHEGREYIDAFAGLYCVNIGYGREEVADAIYEQAKQLAYYHTYVGHSNDPVIELSSRIIEDWAPAGMKKVFYGMSGSDANETQIKLVWYYNNVLGRPNKKKIIARERSYHGSGIVTGSLTGLPSFHQHFDLPIDRVKHTVCPHWYNAPPGMSEAQFVAYCVEELEKLIAREGADTIAAFIAEPVMGTGGIVPPPQGYWEAIQAVLRKHDILLIADEVVCGFGRLGSKTGSEHYGIKPDLITVAKGLTSAYAPLSAVIVSEKVWDVIEKGSREHGVMGHGWTYSGHPVCAAAALANLDILERENLTGNAADVGAYLQQRLHEAFGAHPLVGEVRGVGMLAALEFMADKGARTPFDPALKVSQKVAAAALEDGLIVRALPHGDILGFAPPLVTTRAEVDEIVAIAKEAFDEVADAVL
modifications: Molecule produced by ancestral reconstruction
- activity of ancestral reconstruction proteins in the coupled assays [2]: activity in accordance with p7

B3: GabT: Gamma-aminobutyrate Transaminase; E.C. 2.6.1.19, from E. coli strain BL21-DE3, N-terminal His6-tag (protein, listed as Escherichia coli)
chain: MNSNKELMQRRSQAIPRGVGQIHPIFADRAENCRVWDVEGREYLDFAGGIAVLNTGHLHPKVVAAVEAQLKKLSHTCFQVLAYEPYLELCEIMNQKVPGDFAKKTLLVTTGSEAVENAVKIARAATKRSGTIAFSGAYHGRTHYTLALTGKVNPYSAGMGLMPGHVYRALYPCPLHGISEDDAIASIHRIFKNDAAPEDIAAIVIEPVQGEGGFYASSPAFMQRLRALCDEHGIMLIADEVQSGAGRTGTLFAMEQMGVAPDLTTFAKSIAGGFPLAGVTGRAEVMDAVAPGGLGGTYAGNPIACVAALEVLKVFEQENLLQKANDLGQKLKDGLLAIAEKHPEIGDVRGLGAMIAIELFEDGDHNKPDAKLTAEIVARARDKGLILLSCGPYYNVLRILVPLTIEDAQIRQGLEIISQCFDEAKQ
modifications: N-terminal His6-tag
notes: Gamma-aminobutyrate Transaminase; E.C; 2.6.1.19, from E. coli strain BL21-DE3, N-terminal His6-tag
- substrate scope of GabT [4]: C4-C8 omega-amino acids

B4: p7N48: de novo peptide sequence based on p7, produced by ancestral reconstruction; SEQ ID NO:12 (protein)
chain: MTDTDDLLEMDRAHFFHPSTHLRDHASGELPGRIITGGKGIRIQDSEGREYIDAFAGLYCVNVGYGRTEIADAIYEQAKELAYYHTYVGHSNEPIIELSERIIREWAPAGMSKVYYGMSGSDANETQIKLVWYYNNVLGRPQKKKIISRQRGYHGSGIMTGSLTGLPAFHNHFDLPLEPIRHTTCPHYYRAPAGMSEAEFSRHCADELEKMILAEGPDTVAAFIGEPVMGTGGIVPPPEGYWEAIQAVLNKYDILLIADEVVCGFGRTGSMFGSHHYGMKPDLITVAKGLTSAYAPLSGVIVGEKVWKVLEQGSDQYGPIGHGWTYSGHPICAAAALANLDIIERENLTGNAADTGAYFQQRMRETFGDHPLVGEVRGVGLMAALEFVADKDKRTRFDPSLKVGPRVSAACLEDGMIARAMPHGDILGFAPPLVITRAEVDEIVDIAKQAVDAVADELV
modifications: Molecule produced by ancestral reconstruction
- activity of ancestral reconstruction proteins in the coupled assays [2]: activity in accordance with p7
